The record followed here is patent publication US20250295737A1 (AstraZeneca / MedImmune, published 2025).

Test in all cases: cell-based or functional assay
Assay [1] has as its target T1, human RXFP1 (human, UniProt Q9HBX9 1-757).
T1 sequence (looked up): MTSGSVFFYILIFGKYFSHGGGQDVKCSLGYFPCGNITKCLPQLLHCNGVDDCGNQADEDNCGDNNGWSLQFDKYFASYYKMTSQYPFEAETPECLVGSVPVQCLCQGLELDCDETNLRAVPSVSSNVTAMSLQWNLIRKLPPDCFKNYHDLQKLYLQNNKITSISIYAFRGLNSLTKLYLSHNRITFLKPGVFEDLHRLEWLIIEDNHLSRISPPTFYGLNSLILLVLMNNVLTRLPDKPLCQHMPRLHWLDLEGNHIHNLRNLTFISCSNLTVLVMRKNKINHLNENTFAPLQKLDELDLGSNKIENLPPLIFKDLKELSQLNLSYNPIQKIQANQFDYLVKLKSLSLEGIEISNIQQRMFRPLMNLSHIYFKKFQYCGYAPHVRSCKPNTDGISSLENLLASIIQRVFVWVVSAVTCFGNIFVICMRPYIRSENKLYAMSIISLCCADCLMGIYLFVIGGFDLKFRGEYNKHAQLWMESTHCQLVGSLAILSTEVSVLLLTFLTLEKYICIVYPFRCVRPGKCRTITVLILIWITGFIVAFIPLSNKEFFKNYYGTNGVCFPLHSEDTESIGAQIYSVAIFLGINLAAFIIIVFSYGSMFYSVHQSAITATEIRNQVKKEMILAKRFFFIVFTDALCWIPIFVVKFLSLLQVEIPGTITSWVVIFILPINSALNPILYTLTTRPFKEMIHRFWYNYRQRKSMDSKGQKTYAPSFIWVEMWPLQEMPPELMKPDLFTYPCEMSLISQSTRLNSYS

Assay [2] deals with T2, mouse RXFP1 (mouse, UniProt Q6R6I7 1-758).
T2 sequence (looked up): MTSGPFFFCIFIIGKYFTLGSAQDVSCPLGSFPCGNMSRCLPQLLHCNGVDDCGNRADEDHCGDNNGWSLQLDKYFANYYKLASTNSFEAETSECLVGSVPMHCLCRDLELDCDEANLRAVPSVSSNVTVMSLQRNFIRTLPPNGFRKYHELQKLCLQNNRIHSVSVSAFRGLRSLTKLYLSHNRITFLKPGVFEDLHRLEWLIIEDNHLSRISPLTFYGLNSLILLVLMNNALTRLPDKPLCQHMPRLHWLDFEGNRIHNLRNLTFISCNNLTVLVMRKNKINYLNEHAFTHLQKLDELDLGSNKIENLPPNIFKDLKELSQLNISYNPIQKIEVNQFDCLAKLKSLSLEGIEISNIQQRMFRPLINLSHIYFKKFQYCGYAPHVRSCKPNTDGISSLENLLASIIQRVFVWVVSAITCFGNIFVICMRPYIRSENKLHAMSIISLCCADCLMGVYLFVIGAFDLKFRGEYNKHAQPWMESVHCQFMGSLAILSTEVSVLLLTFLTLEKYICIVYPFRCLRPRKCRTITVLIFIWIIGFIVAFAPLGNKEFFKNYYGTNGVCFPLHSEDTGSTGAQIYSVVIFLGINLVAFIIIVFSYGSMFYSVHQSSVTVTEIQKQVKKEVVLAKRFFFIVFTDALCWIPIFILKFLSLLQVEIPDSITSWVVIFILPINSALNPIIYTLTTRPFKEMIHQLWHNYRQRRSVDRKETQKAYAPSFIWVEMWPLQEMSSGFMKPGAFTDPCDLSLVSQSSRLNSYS

Assay [3] has as its target T3, human RXFP2 (human, UniProt Q8WXD0 1-754).
The target in assay [4] is T1, human RXFP1. This is another data set of the same source.
The target of assay [5] is T2, mouse RXFP1. This is another data set of the same source.
In assay [6] the target is T3, human RXFP2. The source holds these as a separate data set.
The target of assay [7] is T1, human RXFP1. This is another data set of the same source.
The target of assay [8] is T2, mouse RXFP1. The source holds these as a separate data set.
Assay [9] concerns the target T3, human RXFP2. The source holds these as a separate data set.

Like-named read-outs stand apart in the source and are kept apart here.

T3 sequence (Q8WXD0 whole entry): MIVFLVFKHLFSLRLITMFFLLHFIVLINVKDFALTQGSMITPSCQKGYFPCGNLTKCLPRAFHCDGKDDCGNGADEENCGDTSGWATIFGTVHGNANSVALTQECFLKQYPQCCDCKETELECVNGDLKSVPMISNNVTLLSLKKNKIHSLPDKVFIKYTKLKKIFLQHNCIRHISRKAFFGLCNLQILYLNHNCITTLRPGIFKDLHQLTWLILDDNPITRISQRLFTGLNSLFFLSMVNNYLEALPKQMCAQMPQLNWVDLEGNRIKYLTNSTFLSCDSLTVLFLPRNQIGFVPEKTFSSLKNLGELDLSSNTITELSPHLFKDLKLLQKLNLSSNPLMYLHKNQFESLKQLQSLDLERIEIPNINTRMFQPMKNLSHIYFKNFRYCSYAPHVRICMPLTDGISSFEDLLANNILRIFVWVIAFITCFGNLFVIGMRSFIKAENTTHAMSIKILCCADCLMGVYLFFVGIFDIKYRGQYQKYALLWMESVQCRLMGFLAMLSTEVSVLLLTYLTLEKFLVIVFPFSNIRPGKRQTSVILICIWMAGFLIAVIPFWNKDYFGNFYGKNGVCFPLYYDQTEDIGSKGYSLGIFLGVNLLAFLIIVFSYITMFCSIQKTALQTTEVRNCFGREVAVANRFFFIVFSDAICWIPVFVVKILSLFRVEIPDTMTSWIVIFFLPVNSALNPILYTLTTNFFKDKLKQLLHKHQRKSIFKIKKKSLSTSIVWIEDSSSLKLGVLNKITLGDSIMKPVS

B1: RELAX0117 (Fc fusion)
chain 1: QLYSALANKCCHVGCTKRSLARFCAAAGGGGSGGGGSGGGGSGGGGSACPPCPAPEFEGGPSVFLFPPKPKDTLMISRTPEVTCVVVDVSHEDPEVKFNWYVDGVEVHNAKTKPREEQYNSTYRVVSVLTVLHQDWLNGKEYKCKVSNKALPASIEKTISKAKGQPREPQVYTLPPCREEMTKNQVSLWCLVKGFYPSDIAVEWESNGQPENNYKTTPPVLDSDGSFFLYSKLTVDKSRWQQGNVFSCSVMHEALHNHYTQKSLSLSPGGGGGSGGGGSGGGGSGGGGGSQLYSALANKCCHVGCTKRSLARFC
chain 2: SWMEEVIKLCGRELVRAQIAICGMSTWSAAAGGGGSGGGGSGGGGSGGGGSACPPCPAPEFEGGPSVFLFPPKPKDTLMISRTPEVTCVVVDVSHEDPEVKFNWYVDGVEVHNAKTKPREEQYNSTYRVVSVLTVLHQDWLNGKEYKCKVSNKALPASIEKTISKAKGQPREPQVCTLPPSREEMTKNQVSLSCAVKGFYPSDIAVEWESNGQPENNYKTTPPVLDSDGSFFLVSKLTVDKSRWQQGNVFSCSVMHEALHNHYTQKSLSLSPGGGGGSGGGGSGGGGSGGGGGSSWMEEVIKLCGRELVRAQIAICGMSTWS
For the molecule B1, in assay [1], the “EC50 hRXFP1 (M), cAMP HTRF assay” value stood at 1.06e-11 M. In assay [2], the “EC50 mRXFP1 (M), cAMP HTRF assay” value amounted to 1.74e-11 M. The “EC50 hRXFP2 (M), cAMP HTRF assay” value in assay [3] was 1.61e-08 M.

B2: RELAX0091 (Fc fusion)
chain 1: QLYSALANKCCHVGCTKRSLARFCAAAGGGGSGGGGSGGGGSGGGGSACPPCPAPEFEGGPSVFLFPPKPKDTLMISRTPEVTCVVVDVSHEDPEVKFNWYVDGVEVHNAKTKPREEQYNSTYRVVSVLTVLHQDWLNGKEYKCKVSNKALPASIEKTISKAKGQPREPQVYTLPPCREEMTKNQVSLWCLVKGFYPSDIAVEWESNGQPENNYKTTPPVLDSDGSFFLYSKLTVDKSRWQQGNVFSCSVMHEALHNHYTQKSLSLSPG
chain 2: SWMEEVIKLCGRELVRAQIAICGMSTWSAAAGGGGSGGGGSGGGGSGGGGSACPPCPAPEFEGGPSVFLFPPKPKDTLMISRTPEVTCVVVDVSHEDPEVKFNWYVDGVEVHNAKTKPREEQYNSTYRVVSVLTVLHQDWLNGKEYKCKVSNKALPASIEKTISKAKGQPREPQVCTLPPSREEMTKNQVSLSCAVKGFYPSDIAVEWESNGQPENNYKTTPPVLDSDGSFFLVSKLTVDKSRWQQGNVFSCSVMHEALHNHYTQKSLSLSPG
On to B2, for which, in assay [1], the “EC50 hRXFP1 (M), cAMP HTRF assay” value came to 5.88e-11 M. In [2], the “EC50 mRXFP1 (M), cAMP HTRF assay” value was determined as 2.88e-11 M. The “EC50 hRXFP2 (M), cAMP HTRF assay” value in [3] is more than 1.09e-07 M.

B3: RELAX0019 (Fc fusion)
chain 1: GGAGGACPPCPAPEFEGGPSVFLFPPKPKDTLMISRTPEVTCVVVDVSHEDPEVKFNWYVDGVEVHNAKTKPREEQYNSTYRVVSVLTVLHQDWLNGKEYKCKVSNKALPASIEKTISKAKGQPREPQVYTLPPCREEMTKNQVSLWCLVKGFYPSDIAVEWESNGQPENNYKTTPPVLDSDGSFFLYSKLTVDKSRWQQGNVFSCSVMHEALHNHYTQKSLSLSPGGGGGSGGGGSGGGGSGGGGGSQLYSALANKCCHVGCTKRSLARFC
chain 2: GGAGGACPPCPAPEFEGGPSVFLFPPKPKDTLMISRTPEVTCVVVDVSHEDPEVKFNWYVDGVEVHNAKTKPREEQYNSTYRVVSVLTVLHQDWLNGKEYKCKVSNKALPASIEKTISKAKGQPREPQVCTLPPSREEMTKNQVSLSCAVKGFYPSDIAVEWESNGQPENNYKTTPPVLDSDGSFFLVSKLTVDKSRWQQGNVFSCSVMHEALHNHYTQKSLSLSPGGGGGSGGGGSGGGGSGGGGGSSWMEEVIKLCGRELVRAQIAICGMSTWS
For the molecule B3, the “EC50 hRXFP1 (M), cAMP HTRF assay” value in assay [4] came out at 5.81e-11 M; in [1], 3.57e-11 M; in assay [7], 5.81e-11 M. The “EC50 mRXFP1 (M), cAMP HTRF assay” value in assay [5] stood at 2.24e-11 M; in assay [2], 9.1e-12 M; in assay [8], 2.24e-11 M. The entries for the “EC50 hRXFP2 (M), cAMP HTRF assay” value in assay [6], in assay [3] and in assay [9] were 4.4e-08 M, 3.42e-08 M and 4.4e-08 M, respectively.

B4: RELAX0014 (ligand)
chain 1: MRVSEEWMDGFIRMCGREYARELIKICGASVGR
chain 2: ESGGLMSQQCCHVGCSRRSIAKLYC
As to B4, the “EC50 hRXFP1 (M), cAMP HTRF assay” value in assay [4], in assay [1] and in assay [7] was 4.47e-12 M throughout. In addition, the “EC50 mRXFP1 (M), cAMP HTRF assay” value in assay [5], in assay [2] and in [8] was 2.37e-12 M throughout. Further, the “EC50 hRXFP2 (M), cAMP HTRF assay” value in assay [6], in assay [3] and in assay [9] was 1.78e-12 M each time.

B5: RELAX0013 (ligand)
chain 1: DSWMEEVIKLCGRELVRAQIAICGMSTWS
chain 2: QLYSALANKCCHVGCTKRSLARFC
Regarding B5, the “EC50 hRXFP1 (M), cAMP HTRF assay” value in assay [4], in assay [1] and in [7] was 1.15e-12 M each time. Also, the “EC50 mRXFP1 (M), cAMP HTRF assay” value in assay [5], in assay [2] and in assay [8] was 7.54e-13 M throughout. For the same molecule, the “EC50 hRXFP2 (M), cAMP HTRF assay” value in assay [6], in assay [3] and in [9] was 1.75e-09 M throughout.

B6: RELAX0023 (Fc fusion)
chain 1: DKTHTCPPCPAPEFEGGPSVFLFPPKPKDTLMISRTPEVTCVVVDVSHEDPEVKFNWYVDGVEVHNAKTKPREEQYNSTYRVVSVLTVLHQDWLNGKEYKCKVSNKALPASIEKTISKAKGQPREPQVYTLPPCREEMTKNQVSLWCLVKGFYPSDIAVEWESNGQPENNYKTTPPVLDSDGSFFLYSKLTVDKSRWQQGNVFSCSVMHEALHNHYTQKSLSLSPGGGGGSGGGGSGGGGSGGGGGSQLYSALANKCCHVGCTKRSLARFC
chain 2: DKTHTCPPCPAPEFEGGPSVFLFPPKPKDTLMISRTPEVTCVVVDVSHEDPEVKFNWYVDGVEVHNAKTKPREEQYNSTYRVVSVLTVLHQDWLNGKEYKCKVSNKALPASIEKTISKAKGQPREPQVCTLPPSREEMTKNQVSLSCAVKGFYPSDIAVEWESNGQPENNYKTTPPVLDSDGSFFLVSKLTVDKSRWQQGNVFSCSVMHEALHNHYTQKSLSLSPGGGGGSGGGGSGGGGSGGGGGSSWMEEVIKLCGRELVRAQIAICGMSTWS
Regarding B6, the “EC50 hRXFP1 (M), cAMP HTRF assay” value in assay [1] stood at 3.77e-11 M; in assay [7], 3.32e-11 M. Moreover, the “EC50 mRXFP1 (M), cAMP HTRF assay” value in assay [2] is 3.27e-11 M; in assay [8], 1.36e-11 M. The “EC50 hRXFP2 (M), cAMP HTRF assay” value in assay [3] was determined as 3.24e-08 M; in assay [9] it was 4.2e-08 M.
